Assay results reported in PMC5405413, “The plant cell-wall enzyme AtXTH3 catalyses covalent cross-linking between cellulose and cello-oligosaccharide” (Scientific Reports, 2017).

T1: AtXTH22 (Arabidopsis thaliana, UniProt Q38857)
T1 construct: gene XTH22
T1 sequence (Q38857 22-284): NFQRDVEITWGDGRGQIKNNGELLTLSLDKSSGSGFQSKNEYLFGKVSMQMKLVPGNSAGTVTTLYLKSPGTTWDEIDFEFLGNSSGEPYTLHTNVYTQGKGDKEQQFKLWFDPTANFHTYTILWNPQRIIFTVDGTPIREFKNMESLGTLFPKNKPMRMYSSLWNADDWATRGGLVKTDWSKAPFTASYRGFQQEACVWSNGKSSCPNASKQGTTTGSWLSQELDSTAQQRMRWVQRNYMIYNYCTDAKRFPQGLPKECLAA


Assays:
AtXTH22 = biological target: T1, AtXTH22; assay: transglycosylation, size-exclusion chromatography with fluorescence detection; type: biochemical; conditions: 25 μM acceptor; donor tamarind xyloglucan 2 mg/mL; 50 mM sodium acetate pH 6.0, 30 °C, 24 h; labelled compound
[1] = substrate: OC[C@@H](O)[C@@H](O[C@@H]1O[C@H](CO)[C@@H](O[C@@H]2O[C@H](CO)[C@@H](O[C@@H]3O[C@H](CO)[C@@H](O)[C@H](O)[C@H]3O)[C@H](O)[C@H]2O)[C@H](O)[C@H]1O)[C@H](O)[C@@H](O)CNc1ccccn1; assay: transglycosylation, fluorescent product by anion-exchange LC after cellulase digestion; type: biochemical, Arabidopsis thaliana; conditions: acceptor, donor amorphous cellulose, 50 mM sodium acetate pH 5.0, 30 °C, 6 h, labelled compound
Excerpt: (§1) transglycosylation, fluorescent product by anion-exchange LC after cellulase digestion on AtXTH3 | Michaelis constant (KM) and turnover number (kcat) for acceptor oligosaccharides (left: GGGG-AP; right: XXXG-AP)

[2] = substrate: OC[C@@H](O)[C@@H](O[C@@H]1O[C@H](CO[C@H]2OC[C@@H](O)[C@H](O)[C@H]2O)[C@@H](O[C@@H]2O[C@H](CO[C@H]3OC[C@@H](O)[C@H](O)[C@H]3O)[C@@H](O[C@@H]3O[C@H](CO[C@H]4OC[C@@H](O)[C@H](O)[C@H]4O)[C@@H](O)[C@H](O)[C@H]3O)[C@H](O)[C@H]2O)[C@H](O)[C@H]1O)[C@H](O)[C@@H](O)CNc1ccccn1; assay: as above; type: biochemical, Arabidopsis thaliana; conditions: acceptor, donor amorphous cellulose, 50 mM sodium acetate pH 5.0, 30 °C, 6 h, labelled compound
Excerpt: as §1

Molecule | transglycosylation, size-exclusion chromatography with fluorescence detection (AtXTH22) | Km [1] [µM] | kcat [1] | Km [2] [µM] | kcat [2]
OC[C@@H](O)[C@@H](O[C@@H]1O[C@H](CO[C@H]2OC[C@@H](O)[C@H](O)[C@H]2O)[C@@H](O[C@@H]2O[C@H](CO[C@H]3OC[C@@H](O)[C@H](O)[C@H]3O)[C@@H](O[C@@H]3O[C@H](CO[C@H]4OC[C@@H](O)[C@H](O)[C@H]4O)[C@@H](O)[C@H](O)[C@H]3O)[C@H](O)[C@H]2O)[C@H](O)[C@H]1O)[C@H](O)[C@@H](O)CNc1ccccn1 [XXXG-AP, aminopyridyl xyloglucan-heptasaccharide] | AtXTH22 almost exclusively transferred xyloglucans to xyloglucan oligosaccharides | – | – | – | –
AtXTH3 (Arabidopsis thaliana) (protein) RVFGGRGIEKFVTFGQNYIVTWGQSHVSTLHSGEEVDLYMDQSSGGGFESKDAYGSGLFEMRIKVPSGNTGGIVTAFYLTSKGGGHDEIDFEFLGNNNGKPVTLQTNLFLNGEGNREERFLLWFNPTKHYHTYGLLWNPYQIVFYVDNIPIRVYKNENGVSYPSKPMQVEASLWNGDDWATDGGRTKVNWSYSPFIAHFRDFALSGCNIDGRSNNVGACESSNYWWNAGNYQRLSGNEQKLYEHVRSKYMNYDYCTDRSKYQTPPRECY | – | 58.8 ± 8.4 | 8.0 ± 0.5 x10^-5 sec^-1 | 8.6 ± 2.3 | 9.0 ± 1.0 x10^-5 sec^-1
